Source: paper PMC6527236

Assays:
[1] = tested on: φ29 SSB Y50A (Bacillus subtilis phage φ29); assay: EMSA; conditions: 60 μM SSB, 10 mM Mg2+, EMSA: 12 mM Tris-HCl pH 7.5, 10 mM MgCl2, 1 mM DTT, 4% glycerol, 0.1 mg/ml BSA, 3 nM DNA, 15 min, 4 °C, unwinding: 50 mM Tris-HCl pH 7.5, 4% glycerol
[2] = tested on: φ29 SSB Y57A (Bacillus subtilis phage φ29); assay: EMSA; conditions: 60 μM SSB, 10 mM Mg2+, more retarded band at the highest concentration only, EMSA: 12 mM Tris-HCl pH 7.5, 10 mM MgCl2, 1 mM DTT, 4% glycerol, 0.1 mg/ml BSA, 3 nM DNA, 15 min, 4 °C, unwinding: 50 mM Tris-HCl pH 7.5, 4% glycerol
[3] = tested on: φ29 SSB Y50A (Bacillus subtilis phage φ29); assay: unwinding (oligonucleotide displacement gel); conditions: 80 μM SSB, no Mg2+ listed, helix destabilization, indirect binding read-out, EMSA: 12 mM Tris-HCl pH 7.5, 10 mM MgCl2, 1 mM DTT, 4% glycerol, 0.1 mg/ml BSA, 3 nM DNA, 15 min, 4 °C, unwinding: 50 mM Tris-HCl pH 7.5, 4% glycerol
[4] = tested on: φ29 SSB Y57A (Bacillus subtilis phage φ29); assay: unwinding (oligonucleotide displacement gel); conditions: 80 μM SSB, no Mg2+ listed, helix destabilization, indirect binding read-out, EMSA: 12 mM Tris-HCl pH 7.5, 10 mM MgCl2, 1 mM DTT, 4% glycerol, 0.1 mg/ml BSA, 3 nM DNA, 15 min, 4 °C, unwinding: 50 mM Tris-HCl pH 7.5, 4% glycerol

| Substance | binding signal (% of wild-type binding) [1] | binding signal (% of wild-type binding) [2] | binding signal (% of wild-type 17mer displacement) [3] | binding signal (% of wild-type 17mer displacement) [4] |
| --- | --- | --- | --- | --- |
| 216mer yshC fragment, heat denatured | 96 | 17 | – | – |
| M13mp18 ssDNA annealed to 17mer | – | – | 97 | 17 |
